Data as given in article PMC9605988, “Juxtaposition of Bub1 and Cdc20 on phosphorylated Mad1 during catalytic mitotic checkpoint complex assembly” (Nature Communications, 2022).
Changes are numbered by the printed parent chain. Names may count otherwise. “Also recorded” adds a separate entry of the source. Read-outs that look alike come from different tables or passages of the source.

What was measured:
O-Mad2 R133A = target: T1, O-Mad2 R133A (Homo sapiens, UniProt Q13257, R133A); assay: NMR-monitored conversion of O-Mad2 to C-Mad2; assay type: biochemical; conditions: for O-Mad2 to C-Mad2 conversion: substoichiometric 2 µM Cdc20MIM (1:50) to 100 µM O-Mad2 R133A
T1 construct: made in house
T1 sequence (Q13257 whole entry R133A): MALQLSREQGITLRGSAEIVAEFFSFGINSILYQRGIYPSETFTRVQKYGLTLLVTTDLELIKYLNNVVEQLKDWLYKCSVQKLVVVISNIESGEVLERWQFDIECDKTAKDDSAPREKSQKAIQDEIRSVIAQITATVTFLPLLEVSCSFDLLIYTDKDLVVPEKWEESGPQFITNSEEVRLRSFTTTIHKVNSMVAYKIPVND
Experimental: (§1) The following protein concentrations were used in NMR studies: ^1H,^15N HSQC of Mad1^CTD were collected with a 100 µM sample, whereas a 50 µM sample was used for titrations with Cdc20^N and Cdc20^α1. Cdc20^Box1 peptide was added at mM concentrations to minimise dilution during titration. […] Mad1^CTD was concentrated to 3 mM for titrations into Cdc20^N. ^1H,^15N HSQC of Mad2 were collected at 100 µM. All Mad2 NMR samples contain an R133A mutation to prevent Mad2 dimerisation. The C-Mad2 sample additionally contains an L13A mutation which favours the C-Mad2 state. Cdc20^MIM-bound C-Mad2 sample was prepared by adding a 1:2 excess of Cdc20^MIM peptide to an O-Mad2 sample with R133A mutation. To follow the O-to-C conversion of Mad2, the samples were prepared on ice and monitored using BEST ^1H,^15N-TROSY HSQC. The spectra were acquired with 16 scans and a recycle delay of 400 msec, giving an experimental time of 12 min per spectrum.
(§2) Mad1^CTD and Mad2 experiments were performed using an in-house 800 MHz Avance III spectrometer and Cdc20^N experiments were performed using an in-house 700 MHz Avance II + spectrometer, both equipped with triple resonance TCI CryoProbes. To retrieve signals that suffer from exchange broadening, we also utilised the Bruker 950 MHz Avance III spectrometer located at MRC Biomedical NMR Centre (Francis Crick Institute). Mad1^CTD and Mad2 spectra were collected at 298 K. Cdc20^N spectra were collected at 278 K to minimise exchange broadening for the largely disordered Cdc20^N.

pMad1CTD = assay: 1H,15N HSQC / CON NMR titration with pMad1CTD; assay type: binding, human; conditions: peptide titration, 298 K
Experimental: (§3) Uniformly-labelled proteins were expressed in M9 minimal media (6 g/L Na2HPO4, 3 g/L KH2PO4, 0.5 g/L NaCl) supplemented with 1.7 g/L yeast nitrogen base without NH4Cl and amino acids (Sigma Y1251). 1 g/L ^15NH4Cl and 4 g/L unlabelled glucose were supplemented for ^15N labelling. For ^13C/ ^15N double-labelled samples, unlabelled glucose was replaced with 3 g/L ^13C-glucose. Prior to all NMR experiments, proteins were dialysed into 20 mM HEPES, pH 7.0, 100 mM NaCl and 1 mM TCEP.
as §1, §2
(§4) For binding studies, the relative peak intensities were normalised to the C-terminal residue Ala718 of Mad1^CTD or Gly73 of Cdc20^N and expressed as PIbound/PIfree, with PIfree and PIbound being the peak heights of the free and bound forms, respectively. Weighted chemical shift perturbations were calculated using the equation[63]: Δδ = [(ΔδHNWHN)^2 + (ΔδNWN)^2)^2]^1/2 where ΔδHN and ΔδN are the chemical shift perturbations in ^1H and ^15N dimensions respectively. The weight factors were determined from the average variances of chemical shifts in the BMRB database, where WHN = 1 and WN = 0.16.

[1] = target: T2, Mad1CTD (unphosphorylated) (Homo sapiens, UniProt Q9Y6D9); assay: 1H,15N HSQC / CON NMR titration with unphosphorylated Mad1CTD; assay type: binding; conditions: peptide titration, 298 K
T2 construct: the C-terminal domain of Mad1 (residue 597–718); made in house
T2 sequence (Q9Y6D9 597-718): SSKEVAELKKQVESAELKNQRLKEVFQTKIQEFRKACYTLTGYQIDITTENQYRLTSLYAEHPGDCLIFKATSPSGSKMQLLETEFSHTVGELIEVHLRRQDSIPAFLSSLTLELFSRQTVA
Experimental: as §3
The following protein concentrations were used in NMR studies: ^1H,^15N HSQC of Mad1^CTD were collected with a 100 µM sample, whereas a 50 µM sample was used for titrations with Cdc20^N and Cdc20^α1. […] To follow the O-to-C conversion of Mad2, the samples were prepared on ice and monitored using BEST ^1H,^15N-TROSY HSQC. […]
as §4

[2] = target: T3, preformed AF488-Bub1^CD1:Mad1^CTD complex (Mad1^CTD unphosphorylated) (UniProt Q9Y6D9 597-718, Aurora Fluor 488 (AF488) on the N-terminal Cys; phosphoserine (pSer459); phosphothreonine (pThr461)); assay: fluorescence polarisation; fluorescence anisotropy; Cdc20^N twofold series (100 μM to 6 nM, mixed 1:1) titrated into preformed AF488-Bub1^CD1:Mad1^CTD (20 nM: 2.1 µM); 25 mM HEPES pH 7.75, 1 mM TCEP, 100 mM NaCl, 0.05% Tween-20; 25 °C; conditions: both partners purified
T3 construct: Mad1 C-terminal domain (Mad1^CTD), residues 597-718; as m1; added N-terminal Cys (carries AF488) and Trp; as m7; Bub1 conserved domain 1 (CD1) peptide; also called Mad1^CTD:AF488-Bub1^CD1 complex; source: mixed from purified Mad1^CTD and synthetic peptide (20 nM: 2.1 µM); copies: 2 + 1
T3 sequence 1: T2 sequence (Q9Y6D9 597-718)
T3 sequence 2: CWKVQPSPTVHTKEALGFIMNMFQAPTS

[3] = target: T4, preformed AF488-Bub1^CD1:pMad1^CTD complex (Mad1^CTD phosphorylated at Thr716) (UniProt Q9Y6D9 597-718, phosphothreonine at 716 (pThr716) | Aurora Fluor 488 (AF488) on the N-terminal Cys; phosphoserine (pSer459); phosphothreonine (pThr461)); assay: as above; conditions: both partners purified
T4 construct: Mad1 C-terminal domain (Mad1^CTD), residues 597-718; as m2; added N-terminal Cys (carries AF488) and Trp; as m7; Bub1 conserved domain 1 (CD1) peptide; source: mixed from purified pMad1^CTD and synthetic peptide (20 nM: 2.1 µM); copies: 2 + 1
T4 sequence 1: T2 sequence (Q9Y6D9 597-718)
T4 sequence 2: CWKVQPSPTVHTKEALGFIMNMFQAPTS

[4] = target: the molecule itself; assay: SEC + SEC-MALS; Mad1:C-Mad2 tetramer re-purified by SEC after adding excess Mad2; hexamer formed with an excess of Mad2LL; homogeneity confirmed by SEC-MALS
Cdc20 = conditions: cited from earlier work
Description: NMR spectroscopy was used to obtain structural insights into the Cdc20^N:Mad1^CTD interaction. Unlabelled Cdc20^N was titrated into either ^15N-labelled Mad1^CTD or pMad1^CTD (Fig. 2c, d and Supplementary Fig. 3a, b). […] Similar to Bub1^CD1, the interaction of Cdc20 α1 with Mad1^CTD would largely be driven by hydrophobic interactions (Fig. 4e). This model predicts that Gln3 and Glu7, and Asp9 of Cdc20 α1 interact with Arg617 and Lys619, respectively of the Mad1^CTD RLK motif (Fig. 4d). This is consi ...

pMad1CTD (Mad1CTD pT716) = assay: SEC-MALS, Cdc20N with pMad1CTD; assay type: binding, human; conditions: 1:1.2 ratio Mad1CTD dimer to Cdc20N
Experimental: Size-exclusion chromatography coupled with multi-angle static light scattering (SEC-MALS), was performed using an Agilent 1200 series LC system with an online Dawn Helios ii system (Wyatt) equipped with a QELS + module (Wyatt) and an Optilab rEX differential refractive index detector (Wyatt). About 100 μl purified protein at ~3.0 mg/ml was auto-injected onto Superdex 75 or a Superdex 200 Increase 10/300 GL column (GE Healthcare) and run at 0.5 ml/min. The molecular masses were analysed with ASTRA 7.3.0.11 (Wyatt). Data were plotted using Prism 8.4.3 (GraphPad Software, Inc). Purified Cdc20^N and Cdc20^N mutants were incubated with Mad1^CTD wild-type or mutants at a 1:1.2 ratio of Mad1^CTD dimer to Cdc20^N.

For “NLNGFDVEEAKILRLSGKPQNAPEGYQNRLKVLY [Cdc20^MIM]”, the “O-Mad2 to C-Mad2 conversion” value (O-Mad2 R133A) was “cannot be achieved” and the “O-Mad2 to C-Mad2 conversion” value (O-Mad2 R133A; listed as Cdc20MIM) was “The majority of Mad2 remains in an open state; also recorded: nearly all of Mad2 remains in an open state”.

For “PPARWQRKAKEAA [Cdc20 Box1, Box1 motif peptide of Cdc20]”, the “binding by NMR chemical shift perturbation” value (pMad1CTD) was “binds pMad1^CTD”, the “binding by NMR chemical shift perturbation” value (pMad1CTD; listed as pMad1CTD:Cdc20Box1) was “appeared stronger than that between pMad1CTD:Cdc20α1” and the “binding by NMR chemical shift perturbation” value [1] was “not Mad1^CTD”.

With “O-Mad2: open Mad2 with R133A mutation to prevent dimerisation” the “time for O-Mad2 to C-Mad2 conversion” value (O-Mad2 R133A; absence of Cdc20MIM, peer review response) was 24 h.

For “MAQFAFESDLHSLL [Cdc20 α1, N-terminal α1 helix peptide of Cdc20]”, the “binding by NMR chemical shift perturbation” value (pMad1CTD) was “weak interaction; also recorded: weaker”.

B1: Cdc20^N RRK/SSS mutant (Arg27, Arg30, Lys31 to Ser) (domain or fragment, human, UniProt Q12834 1-73, looked up)
chain: MAQFAFESDLHSLLQLDAPIPNAPPASWQSSAKEAAGPAPSPMRAANRSHSAGRTPGRTPGKSSSKVQTTPSK
notes: human Cdc20, residues 1-73; The purification (with tag cleavage) is told for Cdc20^N; likely the same for the mutant; source: site-directed mutant of the Cdc20^N construct, purified
With B1 the Kd [2] was 18 µM and the Kd [3] was 23 µM.

B2: Mad1^485–718 (Mad1^485), unphosphorylated (domain or fragment, UniProt Q9Y6D9 485-718, looked up)
chain: SSAEQSFLFSREEADTLRLKVEELEGERSRLEEEKRMLEAQLERRALQGDYDQSRTKVLHMSLNPTSVARQRLREDHSQLQAECERLRGLLRAMERGGTVPADLEAAAASLPSSKEVAELKKQVESAELKNQRLKEVFQTKIQEFRKACYTLTGYQIDITTENQYRLTSLYAEHPGDCLIFKATSPSGSKMQLLETEFSHTVGELIEVHLRRQDSIPAFLSSLTLELFSRQTVA
notes: Mad1 residues 485-718; Construct His6-DoubleStrep-TEV-Mad1^485–718; two copies in the tetramer and hexamer with Mad2; also called Mad1 residues 485–718
B2: binds [4].

B3: Mad1^485–718 phosphorylated by Mps1 (pMad1^485) (domain or fragment, UniProt Q9Y6D9 485-718, looked up)
chain: B2 chain
modifications: phosphothreonine at 716 (predominant); lower abundant phosphorylation at Thr500, Ser538, Thr540, Thr550 and Ser551
notes: Mad1 residues 485-718; Predominantly one phosphate per monomer by intact mass; also called phosphorylated Mad1^485; phosphorylated Mad1^485–718
B3: binds [4].

B4: Q648A/R650A: mutation of the conserved QYRL motif within Mad1CTD, ref 33 (protein, UniProt Q9Y6D9 597-718, looked up, variant Q648A R650A)
chain: T2 sequence (Q9Y6D9 597-718) with Q52A, R54A
For B4, the “binding of Cdc20 to Mad1 mutant” value (Cdc20) is listed as “impaired binding to Cdc20” and the “binding of Cdc20 to Mad1 mutant” value (Cdc20; listed as Q648A and R650A) is listed as “impaired binding of Cdc20^N to Mad1”.

B5: Mad1^CTD RLK/AAA: Mad1CTD RLK/AAA (residues 617-619) mutant, ref 33 (protein, UniProt Q9Y6D9 597-718, looked up, variant R617A L618A K619A)
chain: T2 sequence (Q9Y6D9 597-718) with R21A, L22A, K23A
In the case of B5, the “binding of Cdc20 to Mad1 mutant” value (Cdc20) is listed as “abolished Cdc20 binding” and the “binding of Cdc20 to Mad1 mutant” value (Cdc20; listed as RLK/AAA) is listed as “impaired binding of Cdc20^N to Mad1”.

B6: Cdc20^N RRK/SSS: Cdc20N with Arg27, Arg30, Lys31 mutated to Ser (protein)
chain: B1 chain
modifications: left off: His6, N-terminal, state not stated | MBP, N-terminal, state not stated
notes: Cdc20N with Arg27, Arg30, Lys31 mutated to Ser
For B6, the “binding by SEC-MALS” value (pMad1CTD (Mad1CTD pT716)) was “abolished its interaction with pMad1^CTD”.
